Numbering of substitutions follows the chain as printed. Names may count otherwise. “And” between values parts separate entries of the source, which are not always exact repeats. Identical values can stand only once.
What was measured:
[1] = target: T1, VhH-Fc fusion protein chain B with T366S + L368A + Y407V + F405K + E357A; test: non-reducing SDS-PAGE densitometry of Protein A-purified co-transfection product; chain A:chain B vectors 1:4
[2] = target: T1, VhH-Fc fusion protein chain B with …; test: non-reducing SDS-PAGE densitometry of Protein A-purified co-transfection product; chain A:chain B vectors 4:1
[3] = target: Fc protein chain B with D356C + T366S + L368A + Y407V; test: non-reducing SDS-PAGE of Protein A-purified co-transfection product; chain A:chain B vectors 1:4
[4] = target: Fc protein chain B with D356C + T366S + L368A + Y407V; test: non-reducing SDS-PAGE of Protein A-purified co-transfection product; chain A:chain B vectors 4:1
[5] = target: Fc protein chain B with D356C + T366S + L368A + Y407V; test: non-reducing SDS-PAGE densitometry of Protein A-purified co-transfection product; chain A:chain B vectors 1:1
[6] = target: T2, VhH-Fc fusion protein chain B with D356C + T366S + L368A + Y407V; test: non-reducing SDS-PAGE densitometry of Protein A-purified co-transfection product; chain A:chain B vectors 1:4
[7] = target: T2, VhH-Fc fusion protein chain B with …; test: non-reducing SDS-PAGE densitometry of Protein A-purified co-transfection product; chain A:chain B vectors 4:1
[8] = target: T3, VhH-Fc fusion protein chain B with T366S + L368A + Y407V + K409A + K392D; test: non-reducing SDS-PAGE densitometry of Protein A-purified co-transfection product; chain A:chain B vectors 1:4
[9] = target: T3, VhH-Fc fusion protein chain B with …; test: non-reducing SDS-PAGE densitometry of Protein A-purified co-transfection product; chain A:chain B vectors 4:1
[10] = target: T4, VhH-Fc fusion protein chain B with T366S + L368G + Y407A + K409A; test: non-reducing SDS-PAGE densitometry of Protein A-purified co-transfection product; chain A:chain B vectors 1:4
[11] = target: T4, VhH-Fc fusion protein chain B with …; test: non-reducing SDS-PAGE densitometry of Protein A-purified co-transfection product; chain A:chain B vectors 4:1
[12] = target: T5, VhH-Fc fusion protein chain B with T366S + L368A + Y407V + K409A + E357A; test: non-reducing SDS-PAGE densitometry of Protein A-purified co-transfection product; chain A:chain B vectors 1:4
[13] = target: T5, VhH-Fc fusion protein chain B with …; test: non-reducing SDS-PAGE densitometry of Protein A-purified co-transfection product; chain A:chain B vectors 4:1
[14] = target: Fc protein chain B with D356C + T366S + L368A + Y407V + F405K; test: non-reducing SDS-PAGE of Protein A-purified co-transfection product; chain A:chain B vectors 1:4
[15] = target: Fc protein chain B with D356C + T366S + L368A + Y407V + F405K; test: non-reducing SDS-PAGE of Protein A-purified co-transfection product; chain A:chain B vectors 4:1
[16] = target: T6, VhH-Fc fusion protein chain B with D356C + T366S + L368A + Y407V + F405K; test: non-reducing SDS-PAGE densitometry of Protein A-purified co-transfection product; chain A:chain B vectors 1:4
[17] = target: T6, VhH-Fc fusion protein chain B with …; test: non-reducing SDS-PAGE densitometry of Protein A-purified co-transfection product; chain A:chain B vectors 4:1
[18] = target: Fc protein chain B with D356C + T366S + L368A + Y407V + F405K; test: non-reducing SDS-PAGE densitometry of Protein A-purified co-transfection product; chain A:chain B vectors 1:1
[19] = target: T7, VhH-Fc fusion protein chain B with T366S + L368A + Y407V + D399S + F405K; test: as above
[20] = target: T7, VhH-Fc fusion protein chain B with …; test: non-reducing SDS-PAGE densitometry of Protein A-purified co-transfection product; chain A:chain B vectors 1:4
[21] = target: T7, VhH-Fc fusion protein chain B with …; test: non-reducing SDS-PAGE densitometry of Protein A-purified co-transfection product; chain A:chain B vectors 4:1
[22] = target: T8, VhH-Fc fusion protein chain B with T366S + L368G + Y407A + F405K; test: non-reducing SDS-PAGE densitometry of Protein A-purified co-transfection product; chain A:chain B vectors 1:4
[23] = target: T8, VhH-Fc fusion protein chain B with …; test: non-reducing SDS-PAGE densitometry of Protein A-purified co-transfection product; chain A:chain B vectors 4:1

B1: ScFv-Fc fusion protein chain A with T366W + K409A + Y349D + S354D (protein)
chain: EVQLLESGGGVVQPGRSLRLSCIASGFTFSSYPMTWVRQAPGKGLEWVASISYDGSYKYKADSMKGRLTISRDNSKNTLYLEMNSLTAEDTAVYYCARTAFFNAYDFWGQGTLVTVSSASTKGPSVGGGGSGGGGSEIVMTQSPATLSVSPGERATLSCRASQSVRSNLAWYQQKPGQAPRLLIYAASTRATGIPARFSGSGSGTEFTLTISSLQSEDFAVYYCQQYNEWFRTSGQGTKVEIKRDKTHTCPPCPAPELLGGPSVFLFPPKPKDTLMISRTPEVTCVVVDVSHENPEVKFNWYVDGVEVHNAKTKPREEQYNSTYRVVSVLTVLHQDWLNGKEYKCKVSNKALPAPIEKTISKAKGQPREPQVDTLPPDRDELTKNQVSLWCLVKGFYPSDIAVEWESNGQPENNYKTTPPVLDSDGSFFLYSALTVDKSRWQQGNVFSCSVMHEALHNHYTQKSLSLSPGK
ScFv-Fc/VhH-Fc heterodimer (%) [1]: 64% | ScFv-Fc/VhH-Fc heterodimer (%) [2]: 61%

B2: ScFv-Fc fusion protein chain A with Y349C + T366W + F405K (protein)
chain: B1 chain with D373C, D378S, F429K, A433K
ScFv-Fc/Fc heterodimer (%) [3]: 49% | ScFv-Fc/Fc heterodimer (%) [4]: 66% | ScFv-Fc/Fc heterodimer (%) [5]: 60% and 70% | ScFv-Fc/VhH-Fc heterodimer (%) [6]: 39% | ScFv-Fc/VhH-Fc heterodimer (%) [7]: 55%

B3: ScFv-Fc fusion protein chain A with T366W + F405K + D399S (protein)
chain: B1 chain with D373Y, D378S, D423S, F429K, A433K
ScFv-Fc/VhH-Fc heterodimer (%) [8]: 69% | ScFv-Fc/VhH-Fc heterodimer (%) [9]: 66%

B4: ScFv-Fc fusion protein chain A with T366W + F405K (protein)
chain: B1 chain with D373Y, D378S, F429K, A433K
ScFv-Fc/VhH-Fc heterodimer (%) [10]: 93% | ScFv-Fc/VhH-Fc heterodimer (%) [11]: 77%

B5: ScFv-Fc fusion protein chain A with T366W + F405K + Y349D + S354D (protein)
chain: B1 chain with F429K, A433K
ScFv-Fc/VhH-Fc heterodimer (%) [12]: 86% | ScFv-Fc/VhH-Fc heterodimer (%) [13]: 61%

B6: ScFv-Fc fusion protein chain A with Y349C + T366W + K409A (protein)
chain: B1 chain with D373C, D378S
ScFv-Fc/Fc heterodimer (%) [14]: 66% | ScFv-Fc/Fc heterodimer (%) [15]: 53% | ScFv-Fc/VhH-Fc heterodimer (%) [16]: 47% | ScFv-Fc/VhH-Fc heterodimer (%) [17]: 54%

B7: ScFv-Fc fusion protein chain A with Y349C + T366W (protein)
chain: B1 chain with D373C, D378S, A433K
ScFv-Fc/Fc heterodimer (%) [3]: 44% | ScFv-Fc/Fc heterodimer (%) [4]: 42%

B8: ScFv-Fc fusion protein chain A with Y349C + T366W + K409A + L368E (protein)
chain: B1 chain with D373C, D378S, L392E
ScFv-Fc/Fc heterodimer (%) [18]: 30%

B9: ScFv-Fc fusion protein chain A with T366W + K409A + K392D (protein)
chain: B1 chain with D373Y, D378S, K416D
ScFv-Fc/VhH-Fc heterodimer (%) [19]: 80% | ScFv-Fc/VhH-Fc heterodimer (%) [20]: 73% | ScFv-Fc/VhH-Fc heterodimer (%) [21]: 61%

B10: ScFv-Fc fusion protein chain A with T366W + K409A (protein)
chain: B1 chain with D373Y, D378S
ScFv-Fc/VhH-Fc heterodimer (%) [22]: 89% | ScFv-Fc/VhH-Fc heterodimer (%) [23]: 52%

B11: ScFv-Fc fusion protein chain A with T366W + K409A + Y349D (protein)
chain: B1 chain with D378S
ScFv-Fc/VhH-Fc heterodimer (%) [1]: 60% | ScFv-Fc/VhH-Fc heterodimer (%) [2]: 49%
